# T1: SMT3–Hairless NTCT fusion protein (residues 232–358) (Drosophila melanogaster, UniProt Q02308 232-358)
# T1 sequence: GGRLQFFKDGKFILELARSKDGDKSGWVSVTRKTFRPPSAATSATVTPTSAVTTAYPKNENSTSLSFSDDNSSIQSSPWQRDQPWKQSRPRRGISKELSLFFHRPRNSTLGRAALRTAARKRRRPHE
# B1: core Su(H) (amino acids 98–523) (domain or fragment)
# chain: not shown
# B2: Hairless NT (amino acids 232–269) (domain or fragment)
# chain: GGRLQFFKDGKFILELARSKDGDKSGWVSVTRKTFRPP
# Legend:
# [1] = biological target: T1, SMT3–Hairless NTCT fusion protein …; assay: ITC
# [2] = biological target: B1; assay: native gel or EMSA
stoichiometry N [1],binding result [2],Binder
0.9,,B1
,binds,B2

# Reference: PMC3164469 (Molecular Biology of the Cell, 2011)
